Laboratory results published in paper PMC8208711.

Target: human wild-type full-length CC chemokine receptor 5 (CCR5) (human) (UniProt P51681)

Row | Ca2+ flux in HEK-CCR5 cells, decrease of Emax against [6P4]CCL5 [%] | Substance
1 | 30 | [6P4]CCL5 D5A (ligand)
2 | 60 | [6P4]CCL5 D5K (ligand)
